{
  "source": "patent US20170305981A1",
  "about": "(UNIVERSITY OF CHICAGO, published 2017)",
  "key": {"[1]": {"biological_target": "lipoprotein lipase (LpL), SIGMA", "sequence (P11151 29-478)": "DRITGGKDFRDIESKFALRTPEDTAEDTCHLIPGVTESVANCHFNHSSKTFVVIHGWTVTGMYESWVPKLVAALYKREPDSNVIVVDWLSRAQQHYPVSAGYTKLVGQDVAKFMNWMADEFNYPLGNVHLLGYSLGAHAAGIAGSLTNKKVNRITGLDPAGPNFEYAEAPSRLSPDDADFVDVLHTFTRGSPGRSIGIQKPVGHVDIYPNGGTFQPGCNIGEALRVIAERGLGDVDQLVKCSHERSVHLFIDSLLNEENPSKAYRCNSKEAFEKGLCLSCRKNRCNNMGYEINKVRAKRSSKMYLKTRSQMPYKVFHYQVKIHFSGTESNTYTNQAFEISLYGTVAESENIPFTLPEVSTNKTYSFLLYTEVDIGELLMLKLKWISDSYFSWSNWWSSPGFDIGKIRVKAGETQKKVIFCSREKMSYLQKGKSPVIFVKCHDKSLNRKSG", "assay": "cell-based or functional assay"}, "[2]": {"biological_target": "T1, hepatic lipase (HL) on hepatocyte (HepG2) cells (UniProt P11150 23-499, limits assumed)", "T1 sequence (looked up)": "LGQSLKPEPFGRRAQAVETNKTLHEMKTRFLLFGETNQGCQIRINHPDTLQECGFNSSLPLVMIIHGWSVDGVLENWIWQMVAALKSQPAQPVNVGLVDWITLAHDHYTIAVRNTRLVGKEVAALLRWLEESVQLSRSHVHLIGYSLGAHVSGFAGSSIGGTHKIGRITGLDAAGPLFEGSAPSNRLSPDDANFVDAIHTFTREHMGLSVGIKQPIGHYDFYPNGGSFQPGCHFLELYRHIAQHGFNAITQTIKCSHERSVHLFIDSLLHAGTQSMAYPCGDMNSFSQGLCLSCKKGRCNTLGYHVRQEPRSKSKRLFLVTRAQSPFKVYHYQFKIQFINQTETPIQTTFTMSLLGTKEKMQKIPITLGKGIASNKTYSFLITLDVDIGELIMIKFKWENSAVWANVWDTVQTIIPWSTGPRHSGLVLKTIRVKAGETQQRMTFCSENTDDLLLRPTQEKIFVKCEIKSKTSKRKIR", "assay": "cell-based or functional assay"}},
  "data": [
    {"binder": "ARLSRCVQVLSRKLTLKAKALKARIQQNLDQLRE", "note": "[AV-H/K]", "values": [
      {"measurement": "LpL activity in the absence of VLDL, 10 µM peptide", "setting": "[1]", "value": "~1.6", "unit": "fold"},
      {"measurement": "LpL activity in the presence of VLDL, 10 µM peptide", "setting": "[1]", "value": "~8", "unit": "fold"},
      {"measurement": "LpL activity in the presence of VLDL, relative to AV199-232", "setting": "[1]", "value": 44, "unit": "%"}
    ]},
    {"binder": "ARLSRCVQVFSRKLTLKAKALKARIQQNFDQLRE", "note": "[AV-H/K-2F]", "values": [
      {"measurement": "lipase stimulating activity, peptide (80 µg/ml) preincubated with VLDL (20 µg/ml)", "setting": "[1]", "value": "~2", "unit": "fold"}
    ]},
    {"binder": "ARLSRCVQVLSRKLTLKAKALHARIQQNLDQLREELSRA", "note": "[AV199-237]", "values": [
      {"measurement": "hepatic lipase activity in cell culture", "setting": "[2]", "value": "~3", "unit": "fold"},
      {"measurement": "hepatic lipase activity in live hepatocytes, 10 µM peptide", "setting": "[2]", "value": "~2.8", "unit": "fold"}
    ]}
  ]
}
